Data as given in PMC11980582, “The human microbiome-derived antimicrobial lugdunin self-regulates its biosynthesis by a feed-forward mechanism”.

Key:
[1] = tested on: T1, LugJ (Staphylococcus lugdunensis IVK28), ORF:22db99f4; experiment: EMSA; conditions: 10 mM Tris/HCl pH 7.4, 10 mM NaCl (LugJ) or 100 mM NaCl (LugR), 0.1 mg/mL BSA, 1 mM DTT, 1 mM EDTA, 10% glycerol, 30 min at 25 C, 20 ul; 5% native PAGE
T1 sequence: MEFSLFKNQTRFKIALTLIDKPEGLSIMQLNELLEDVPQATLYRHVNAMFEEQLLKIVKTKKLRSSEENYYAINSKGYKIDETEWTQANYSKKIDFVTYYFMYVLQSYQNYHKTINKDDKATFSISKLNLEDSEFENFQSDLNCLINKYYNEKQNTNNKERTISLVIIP

[2] = tested on: T1, LugJ (Staphylococcus lugdunensis IVK28), ORF:22db99f4; experiment: competition; conditions: 10 mM Tris/HCl pH 7.4, 10 mM NaCl (LugJ) or 100 mM NaCl (LugR), 0.1 mg/mL BSA, 1 mM DTT, 1 mM EDTA, 10% glycerol, 30 min at 25 C, 20 ul; 5% native PAGE
LugR = target: T2, LugR (Staphylococcus lugdunensis IVK28, UniProt A0A292DID1 1-196); experiment: competition; 2 uM LugR; 50 or 100 ng competitor vs PlugR; 10 mM Tris/HCl pH 7.4, 10 mM NaCl (LugJ) or 100 mM NaCl (LugR), 0.1 mg/mL BSA, 1 mM DTT, 1 mM EDTA, 10% glycerol, 30 min at 25 C, 20 ul; 5% native PAGE; conditions: protein: recombinant; tags: 8xHis (N-terminal, pET-28a derived); chain copies: 2; label: none; blunt
T2 sequence: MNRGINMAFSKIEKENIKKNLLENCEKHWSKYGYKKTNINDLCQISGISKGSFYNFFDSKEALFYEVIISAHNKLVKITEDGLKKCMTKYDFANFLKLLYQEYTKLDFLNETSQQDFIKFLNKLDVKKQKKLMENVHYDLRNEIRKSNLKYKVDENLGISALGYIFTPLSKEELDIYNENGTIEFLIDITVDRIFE

ACATAACACCTCACTTTATACATAATAATTGATTTTTAAATAAATGTACAGTAACATTATCATTATCAATAATGATAATGGAGGGTGAAAATG (double strand) [PlugI promoter fragment]
binding [1]: binds

ACATAACACCTCACTTTATACATAATAATTGATTTTTAAATAAATGTACAGTAACATTATCATTATCAATAATGATAATGGAGGGTGAAAATG (double strand) [cold PlugI]
binding [2]: binds

B1: PallugR native (dsDNA)
DNA 1: GATAAAAGTGACTAGAAAAATTTATTTGGTCATAAATGAATAG
DNA 2: CTATTCATTTATGACCAAATAAATTTTTCTAGTCACTTTTATC
binding result (LugR): binds
